Article PMC4597782 (Nature, 2015)

Target: the molecule itself
Assay: single-molecule pull-down

B1: mGluR2-GFP (receptor)
chain: EGPAKKVLTLEGDLVLGGLFPVHQKGGPAEECGPVNEHRGIQRLEAMLFALDRINRDPHLLPGVRLGAHILDSCSKDTHALEQALDFVRASLSRGADGSRHICPDGSYATHSDAPTAVTGVIGGSYSDVSIQVANLLRLFQIPQISYASTSAKLSDKSRYDYFARTVPPDFFQAKAMAEILRFFNWTYVSTVASEGDYGETGIEAFELEARARNICVATSEKVGRAMSRAAFEGVVRALLQKPSARVAVLFTRSEDARELLAATQRLNASFTWVASDGWGALESVVAGSERAAEGAITIELASYPISDFASYFQSLDPWNNSRNPWFREFWEERFHCSFRQRDCAAHSLRAVPFEQESKIMFVVNAVYAMAHALHNMHRALCPNTTHLCDAMRPVNGRRLYKDFVLNVKFDAPFRPADTDDEVRFDRFGDGIGRYNIFTYLRAGSGRYRYQKVGYWAEGLTLDTSFIPWASPSAGPLPASRCSEPCLQNEVKSVQPGEVCCWLCIPCQPYEYRLDEFTCADCGLGYWPNASLTGCFELPQEYIRWGDAWAVGPVTIACLGALATLFVLGVFVRHNATPVVKASGRELCYILLGGVFLCYCMTFVFIAKPSTAVCTLRRLGLGTAFSVCYSALLTKTNRIARIFGGAREGAQRPRFISPASQVAICLALISGQLLIVAAWLVVEAPGTGKETAPERREVVTLRCNHRDASMLGSLAYNVLLIALCTLYAFKTRKCPENFNEAKFIGFTMYTTCIIWLAFLPIFYVTSSDYRVQTTTMCVSVSLSGSVVLGCLFAPKLHIILFQPQKNVVSHRAPTSRFGSAAPRASANLGQGSGSQFVPTVCNGREVVDSTTSSL
stoichiometry N: 2
